{"source": "patent US20260029420A1", "about": "“ANTI-CB2 ANTIBODIES AND THEIR USE IN A FLOW CYTOMETRY ASSAY TO MEASURE CELL SURFACE CB2 EXPRESSION” (Hoffmann-La Roche Inc., priority 2022, published 2026)", "key": {"CHODukx negative [1]": {"tested_on": "CHODukx negative", "assay": "Immunoprecipitation from whole cell lysates, negative control", "assay_type": "binding", "parameters": "key: “−” no signal; “+”-“+++++” signal intensity; “+”-“+++++” signal intensity; “+”-“+++++” signal intensity; “+”-“+++++” signal intensity; “+”-“+++++” signal intensity", "details": "CHODukx negative lysate", "procedure": "(§1) The positive clones (Table 1) were further characterized by immunofluorescence (IF; Table 2), Western Blot (Table 3, 1) and Immune precipitation (Table 4, 2) on full length hCB2, hCB1, mCB2 stable-transfected CHO-cell lines in addition to the 2 pANITA constructs.\n(§2) For immunoprecipitation (IP), whole cell lysates were incubated with the respective antibodies. IP was performed according to established protocols and subsequent western blot as described herein above."}, "CHODukx negative [2]": {"tested_on": "CHODukx negative", "assay": "Western blot of cell lysates, negative control", "assay_type": "binding", "parameters": "key: “−” no signal; “+”-“+++++” signal intensity; “+”-“+++++” signal intensity; “+”-“+++++” signal intensity; “+”-“+++++” signal intensity; “+”-“+++++” signal intensity", "details": "CHODukx negative lysate", "procedure": "as §1\n(§3) For Western blot analysis, cells were collected using enzyme free dissociation buffer (Cell dissociation buffer enzyme-free Hanks'-based, Gibco), and washed two times with PBS. To prepare cell lysate, 10^6 cells were lysed with 0.1 ml of lysis buffer (1% NP40, 10% glycerol, 2 mM EDTA, 137 mM NaCl, 20 mM TrisHCl, pH8, Protease Inhibitors) for 10 min on ice. The lysate was cleared by centrifugation at 20′000 g for 5 min. For SDS-PAGE cell lysate was resolved on precast 4-12% gradient gels (NuPAGE® Novex 4-12% Bis-Tris Gel, Invitrogen) with MES running buffer according to the manufacturer's directions. The separation of proteins was visualized by Colloidal Blue staining. The proteins were electrophoretically transferred to nitrocellulose membrane using a dry-blotting system (iBlot, Invitrogen). After blocking the membrane for 16 h in blocking buffer (5% Milk in PBS) at 4° C., specific proteins were detected with appropriate dilutions of mAbs in blocking buffer for 1 h at approximately 20° C. […]"}, "pANITA3.1 mCB2 (JB176) [3]": {"molecular_target": "T1, pANITA3.1 mCB2 (JB176) (Mus musculus, UniProt P47936)", "T1 construct": "expressed in transfected cells; host or cells: HEK293", "T1 sequence (P47936 with tags, fused parts or gaps)": "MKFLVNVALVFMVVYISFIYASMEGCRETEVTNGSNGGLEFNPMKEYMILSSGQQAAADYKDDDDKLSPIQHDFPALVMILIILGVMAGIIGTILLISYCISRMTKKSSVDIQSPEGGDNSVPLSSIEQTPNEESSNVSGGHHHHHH", "assay": "Immunofluorescence on methanol-fixed transfected cells", "assay_type": "binding", "parameters": "key: “−” no fluorescence detected; “+”-“++++” intensity of fluorescent signal; “+”-“++++” intensity of fluorescent signal; “+”-“++++” intensity of fluorescent signal; “+”-“++++” intensity of fluorescent signal", "details": "pANITA3.1 mCB2 (JB176) cells", "procedure": "as §1\n(§4) For IF analysis, methanol-fixed cells were incubated for 20 min in a humid chamber at 37° C. with the respective hCB2 and mCB2 clones. After rinsing twice and washing for 15 min in PBS, 125 μg/ml FITC-conjugated […] anti-mouse IgG antibodies (RAM/IgG (H+L)/FITC, Nordic\n(§5) Immunological Laboratories) diluted in PBS was added and incubated for 20 min in a humid chamber at 37° C. Cells were rinsed twice and washed for 15 min in PBS, mounted with mounting solution (50% PBS 50% glycerol) and covered with a coverslip. Staining was assessed by fluorescence microscopy on a Leica CTR500 fluorescence microscope and a Leica DFC300 FX digital camera."}, "pANITA3.1 hCB2 (JB175) [4]": {"molecular_target": "T2, pANITA3.1 hCB2 (JB175) (Homo sapiens, UniProt P34972)", "T2 construct": "expressed in transfected cells; host or cells: HEK293", "T2 sequence (P34972 with tags, fused parts or gaps)": "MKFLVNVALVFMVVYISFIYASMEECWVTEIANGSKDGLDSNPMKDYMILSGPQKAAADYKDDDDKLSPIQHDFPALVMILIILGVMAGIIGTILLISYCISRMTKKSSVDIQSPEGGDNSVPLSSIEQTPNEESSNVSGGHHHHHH", "assay": "Immunofluorescence on methanol-fixed transfected cells", "assay_type": "binding", "parameters": "key: “−” no fluorescence detected; “+”-“++++” intensity of fluorescent signal; “+”-“++++” intensity of fluorescent signal; “+”-“++++” intensity of fluorescent signal; “+”-“++++” intensity of fluorescent signal", "details": "pANITA3.1 hCB2 (JB175) cells", "procedure": "as §1, §4, §5"}, "[5]": {"tested_on": "pANITA3.1 ratGIPR (DB388)", "assay": "Immunoprecipitation from whole cell lysates", "assay_type": "binding, rat", "parameters": "key to Immunoprecipitation signal intensity: “−” no signal; “+”-“+++++” signal intensity; “+”-“+++++” signal intensity; “+”-“+++++” signal intensity; “+”-“+++++” signal intensity; “+”-“+++++” signal intensity", "procedure": "as §1, §2"}, "pANITA3.1 hCB2 (JB175) [6]": {"molecular_target": "T2, pANITA3.1 hCB2 (JB175)", "assay": "Immunoprecipitation from whole cell lysates", "assay_type": "binding", "parameters": "key to Immunoprecipitation signal intensity: “−” no signal; “+”-“++++” signal intensity; “+”-“++++” signal intensity; “+”-“++++” signal intensity; “+”-“++++” signal intensity", "procedure": "as §1, §2"}, "[7]": {"tested_on": "pANITA3.1 ratGIPR (DB388)", "assay": "Western blot of cell lysates", "assay_type": "binding, rat", "parameters": "key to Western Blot signal intensity: “−” no signal; “+”-“+++++” signal intensity; “+”-“+++++” signal intensity; “+”-“+++++” signal intensity; “+”-“+++++” signal intensity; “+”-“+++++” signal intensity", "procedure": "as §1, §3"}, "pANITA3.1 mCB2 (JB176) [8]": {"molecular_target": "T1, pANITA3.1 mCB2 (JB176)", "assay": "Western blot of cell lysates", "assay_type": "binding", "parameters": "key to Western Blot signal intensity: “−” no signal; “+”-“+++++” signal intensity; “+”-“+++++” signal intensity; “+”-“+++++” signal intensity; “+”-“+++++” signal intensity; “+”-“+++++” signal intensity", "procedure": "as §1\n(§6) For Western blot analysis, cells were collected using enzyme free dissociation buffer (Cell dissociation buffer enzyme-free Hanks'-based, Gibco), and washed two times with PBS. To prepare cell lysate, 10^6 cells were lysed with 0.1 ml of lysis buffer (1% NP40, 10% glycerol, 2 mM EDTA, 137 mM NaCl, 20 mM TrisHCl, pH8, Protease Inhibitors) for 10 min on ice. The lysate was cleared by centrifugation at 20′000 g for 5 min. For SDS-PAGE cell lysate was resolved on precast 4-12% gradient gels (NuPAGE® Novex 4-12% Bis-Tris Gel, Invitrogen) with MES running buffer according to the manufacturer's directions. The separation of proteins was visualized by Colloidal Blue staining. The proteins were electrophoretically transferred to nitrocellulose membrane using a dry-blotting system (iBlot, Invitrogen). After blocking the membrane for 16 h in blocking buffer (5% Milk in PBS) at 4° C., specific proteins were detected with appropriate dilutions of mAbs in blocking buffer for 1 h at approximately 20° C. The membrane was then washed four times for 5 minutes in blocking buffer and incubated with horseradish peroxidase conjugated anti-mouse IgG mAb (GAM/IgG (g-chain)/HRP, Sigma, A9917) diluted 1:10'000 in blocking buffer at approximately 20° C. for 1 h. After washing again, blots were developed using ECL Western blotting detection reagents (ECL Western Blotting Substrate, Pierce) to visualize bands.\n(§7) Expression of recombinant proteins in pANITA3.1 transfected cells was confirmed by Western blot analysis using anti-His tag antibodies. Cells expressing rat Glucose-dependent insulinotropic polypeptide receptor (GIPR), also a G-protein coupled receptor, were used as a negative control."}, "pANITA3.1 hCB2 (JB175) [9]": {"molecular_target": "T2, pANITA3.1 hCB2 (JB175)", "assay": "Western blot of cell lysates", "assay_type": "binding", "parameters": "key to Western Blot signal intensity: “−” no signal; “+”-“+++++” signal intensity; “+”-“+++++” signal intensity; “+”-“+++++” signal intensity; “+”-“+++++” signal intensity; “+”-“+++++” signal intensity", "procedure": "as §1, §6, §7"}, "[10]": {"details": "pANITA3.1 ratGIPR (DB388) lysate"}}, "data": [{"molecule": "hCB2-1/622: murine IgG3 monoclonal anti-human CB2 antibody, VH SEQ ID NO: 1, VL SEQ ID NO: 2, HC SEQ ID NO: 3, LC SEQ ID NO: 4 (antibody) heavy: EVQLQQSGPELVKPGASVKISCKTSGYTFTEYTMHWVRQSHGKSLEWIGGIDRYNGDTYYNQKFKDKATLTVDRSSSTAYMELRSLTSEDSAVYFCARNGAMDYWGQGISVTVSSATTTAPSVYPLVPGCSDTSGSSVTLGCLVKGYFPEPVTVKWNYGALSSGVRTVSSVLQSGFYSLSSLVTVPSSTWPSQTVICNVAHPASKTELIKRIEPRIPKPSTPPGSSCPPGNILGGPSVFIFPPKPKDALMISLTPKVTCVVVDVSEDDPDVHVSWFVDNKEVHTAWTQPREAQYNSTFRVVSALPIQHQDWMRGKEFKCKVNNKALPAPIERTISKPKGRAQTPQVYTIPPPREQMSKKKVSLTCLVTNFFSEAISVEWERNGELEQDYKNTPPILDSDGTYFLYSKLTVDTDSWLQGEIFTCSVVHEALHNHHTQKNLSRSPGK light: DVVMTQTPLSLPVSLGDQASISCRSSQSLVHSNGNTYLHWFLQKPGQSPKLLIYKVSIRFSGVPDRFSGSGSGTDFTLKISRVEAEDLGVYFCSQSTHVPPLTFGAGTKLELKRADAAPTVSIFPPSSEQLTSGGASVVCFLNNFYPKDINVKWKIDGSERQNGVLNSWTDQDSKDSTYSMSSTLTLTKDEYERHNSYTCEATHKTSTSPIVKSFNRNEC", "values": [{"measurement": "Immunoprecipitation signal intensity", "setting": "CHODukx negative [1]", "result": "−"}, {"measurement": "Western Blot signal intensity", "setting": "CHODukx negative [2]", "result": "−"}, {"measurement": "immunofluorescence signal intensity", "setting": "pANITA3.1 mCB2 (JB176) [3]", "result": "−"}, {"measurement": "immunofluorescence signal intensity", "setting": "pANITA3.1 hCB2 (JB175) [4]", "result": "++++"}, {"measurement": "Immunoprecipitation signal intensity", "setting": "[5]; [10]", "result": "−"}, {"measurement": "immunoprecipitation cross reactivity", "setting": "[5]; rat GIPR", "result": "no cross reactivity"}, {"measurement": "immunoprecipitation binding", "setting": "pANITA3.1 hCB2 (JB175) [6]; hCB2", "result": "specifically binds"}, {"measurement": "Immunoprecipitation signal intensity", "setting": "pANITA3.1 hCB2 (JB175) [6]; pANITA3.1 hCB2 (JB175) lysate", "result": "++++"}, {"measurement": "Western Blot signal intensity", "setting": "[7]; [10]", "result": "−"}, {"measurement": "Western blot detection", "setting": "[7]; rat GIPR", "result": "no mCB2, hCB1 or rat GIPR was detected"}, {"measurement": "Western blot detection", "setting": "pANITA3.1 mCB2 (JB176) [8]; mCB2", "result": "no mCB2, hCB1 or rat GIPR was detected"}, {"measurement": "Western Blot signal intensity", "setting": "pANITA3.1 mCB2 (JB176) [8]; pANITA3.1 mCB2 (JB176) lysate", "result": "−"}, {"measurement": "Western blot detection", "setting": "pANITA3.1 hCB2 (JB175) [9]; hCB2", "result": "distinct band"}, {"measurement": "Western Blot signal intensity", "setting": "pANITA3.1 hCB2 (JB175) [9]; pANITA3.1 hCB2 (JB175) lysate", "result": "+++"}]}]}
